Source: patent US11938195B2, “Upconversion nanoparticle peptide conjugates” (BP InnoMed Limited, priority 2021, dated 2024)
Where no end group is shown, it is not given here. [ ]: non-standard residue; d: D form. Ahx = NCCCCCC(=O)O

Tests used:
[1] = molecular target: EBNA1 (DNA-binding domain fragment of a.a.468-607) (Epstein-Barr virus, UniProt P03211); test: EBNA1 dimerization/oligomerization inhibition assay; format: biochemical; details: 0.3 mg/mL nanoprobe, 90 mg EBNA1, DSS crosslinking, SDS gel
Sequence of EBNA1 (DNA-binding domain fragment of a.a.468-607) (P03211 468-607): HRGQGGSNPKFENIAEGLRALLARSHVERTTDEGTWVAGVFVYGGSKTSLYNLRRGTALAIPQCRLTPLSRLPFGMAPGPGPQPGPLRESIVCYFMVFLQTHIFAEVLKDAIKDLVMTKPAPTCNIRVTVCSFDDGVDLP
Experimental: EBNA1 dimerization/oligomerization inhibition assays were performed to reveal the ability of interrupting EBNA1 dimerization/oligomerization in the presence of the previous nanoprobe UCNP-P4 and the nanoplatforms in situ.
(conc.: 0.3 mg/mL) at 4° C. overnight. Then, 2 mM disuccinimidyl suberate (DSS) was added to allow the samples to undergo crosslinking reaction at room temperature for 30 min. The samples were run and separated on an SDS-denaturing gel and proteins were detected using Coomassie Blue staining. PBS buffer was used as control group.

[2] = system: p65; test: Western blot of p65 (NF-κB) in LCL3 cells; format: cell-based
Source text: (§1) NF-κB signaling pathway is critical for the survival of EBV-infected tumor cells. Here we investigated if our nanoprobes could affect this oncogenic pathway. EBV-positive LCL3 and C666 cells were used as models, EBV-negative HK1 cells were used as control and Western blot was used to analyze the protein expression of p65, a major transcription factor in the NF-κB family. […] GAPDH and Histone are regarded as internal standards in cytosolic and nuclear fractions, respectively. […] This is consistent with the cellular uptake results.
(§2) Western blotting: EBV-positive C666, LCL3 and EBV-negative HK1 cell pellets were treated with phosphatase and protease inhibitors at 0-4° C. for 30 min. The total protein concentrations were calculated by protein absorbance. The protein was resolved by sodium dodecyl sulfate-polyacrylamide gel electrophoresis (SDS-PAGE) and transferred to cellulose filter membranes. The membranes were blocked with 3% BSA in Tris-buffered saline in 0.1% Tween 20 (TBST) for 1 h with gentle shaking and subsequently incubated with primary antibodies (1:1000) in 3% BSA in TBST at 4° C. for overnight. After rinsing with TBST buffer three times, the blots were then incubated with corresponding secondary anti-rabbit antibody (1:6000) for 1 h. After that, the blots were rinsed again with 3% BSA in TBST for 1 h shaking at room temperature. Lastly, the density of bands was determined by image analysis system after washing with TBST buffer three times.

[3] = system: EBV-positive C666 cells; test: Two-photon confocal imaging, C666; format: cell-based; details: mainly from the nuclei, 24 h incubation
Experimental: After the study of cellular uptake, fluorescent confocal microscopy was used to study the sub-cellular localization with the same set of EBV-/LMP1-positive and -negative cell lines. All these cell lines were treated with as-prepared samples for different time intervals of 1 h, 3 h, 6 h, 12 h and 24 h. Fluorescence signals in the cells were imaged under 980 nm excitation.
The cells were then co-stained with 0.05 mM nuclear dye DRAQ5 for 0.5 h for confocal imaging with a Leica SP8 confocal microscope equipped with a coherent femtosecond laser (690-1050 nm), argon laser (432 nm, 457 nm and 488 nm), He—Ne laser (632 nm), UV lamp. A stage-top cell culture chamber was also used to maintain the atmospheric conditions of 2-7% CO2 and a temperature of 37° C.

[4] = system: LCL3 cells; test: Cellular uptake by ICP-MS, LCL3; format: cell-based
Experimental: (§3) Subsequently, the quantitative distribution and uptake efficiency of nanoprobes in vitro in C666, HK1, HK1-LMP1 and LCL3 cells lines were monitored and investigated by evaluating the lanthanide content originating from the nanoprobes using inductively coupled plasma mass spectrometry (ICP-MS).
(§4) After co-incubation, the cell culture medium containing the nanoprobes was removed, and the exposed cells were further rinsed with 1 mL PBS three times. After that, the cells were trypsinized and re-dispersed in 1 mL cell medium. The cells were collected by centrifugation at 1500 rpm, and the cell pellet was digested in 100 μL concentrated HNO3 (69%) at room temperature for 3 h. Then, each cell pellet in centrifuge tube was filled up to 10 mL with 1% HNO3. The cellular uptake of all the nanoprobes was recorded via an Agilent 7500 series ICP-MS instrument. All ICP experiments were performed three times, and the values of Gd concentration (ppm) obtained were calculated and averaged.

[5] = system: p65; test: Western blot of p65 (NF-κB) in C666 cells; format: cell-based
Source text: as §1, §2

[6] = Peptide release from nanoprobes under various time intervals (UV-vis absorbance); format: physicochemical; details: 0.5 mg/mL
Source text: The stability and capability of cleavage of the pH linker were also studied. […] More importantly, TEM images of UCNP-P5 at different pH buffers were observed and investigated in FIG. 1, providing direct evidence on pH-responsive peptide release from UCNP.

[7] = system: LMP1-positive LCL3 cells; test: MTT cytotoxicity assay, LCL3 cells; format: cell-based; details: 24 h incubation
Experimental: The inhibitory effects of the novel nanoprobes on both EBV-infected cancer cells and non-EBV-infected cancer cells were investigated by MTT assays to test the cell viability. The cytotoxic assays were performed in EBV-positive C666 and NPC43 cells, LMP1-positive LCL3 and Raji cells, and the LMP1-positive and -negative HK1 cell pair. HK1, MRC-5 and HeLa cell lines are EBV-negative and they serve as negative controls. […] In addition, UCNP-P4, EBNA1-specific peptide coated UCNPs was included as control group, so the ability of inhibiting EBV-related cancer cells can be directly compared with UCNP-Pn [n=5, 6 and 7 (SEQ ID NO: 5, 6, 7)].
In vitro cytotoxic assays: The cytotoxicity of our nanoprobes was determined by MTT reduction assay. The cells (3×10^3 per well) were seeded onto 96-well plates and incubated overnight, followed by treatment with Pn [n=5, 6 and 7 (SEQ ID NO: 5, 6, 7)], UCNP, UCNP-Pn [n=5, 6 and 7 (SEQ ID NO: 5, 6, 7)] and UCNP-P4 individually at 37° C., 5% CO2 for 24 h in dark. The cell monolayers were rinsed with PBS and 50 μL of MTT, 3-(4,5-dimethylthiazol-2-yl)-2,5-diphenyltetrazolium bromide solution (0.5 mg mL^−1) was added per well and the cells were further incubated for 3 h at 37° C. […] The absorptions of the formazan crystal solutions at 540 nm and 690 nm were measured using a dual-wavelength Labsystem Multiskan microplate reader (Merck Eurolab).

[8] = system: HK1-LMP1 cells; test: Cellular uptake by ICP-MS, HK1-LMP1; format: cell-based
Experimental: as §3, §4

UCNP-P5: UCNP is NaGdF4:Yb^3+, Er^3+@NaGdF4 and plurality of polypeptides is Ahx-YFMVFGGRrRKGGFWLY (SEQ ID NO: 5), pH-sensitive imine linker ([Ahx]YFMVFGGR[dR]RKGGFWLY; also: conjugated to UCNP NaGdF4:Yb3+,Er3+@NaGdF4 via pH-sensitive imine linker)
Inhibition of EBNA1 dimerization/oligomerization [1]: eradicate all 90 mg EBNA1 dimers and oligomers
Decreased p65 expression, nuclear fraction [2]: 86%
Responsive emission enhancement (lambda scan) [3]: two-fold
Cellular uptake (Gd amount by ICP-MS) ([4]; 50 μg/mL): largest amount of cellular uptake
Gd amount relative to UCNP-P4 ([4]; 24 h incubation): over twice
Decreased p65 expression, nuclear fraction [5]: 89%
Peptide release rate ([6]; 1 h): 0%
Peptide release rate ([6]; 3 h): 0%
Peptide release rate ([6]; 6 h): 0.1%
Peptide release rate ([6]; 12 h): 0.5%
Peptide release rate ([6]; 24 h): 0.7%
Peptide release rate ([6]; 3 day): 0.8%
Peptide release rate ([6]; 5 day): 1.1%
Peptide release rate ([6]; 7 day): 1.9%
IC50 in LCL3 [7]: 19 mg/mL
Uptake relative to UCNP-P6 and UCNP-P7 ([8]; HK1-LMP1 (HK1 / HK1-LMP1 cell pair)): two-fold
Cellular uptake (Gd amount by ICP-MS) ([8]; HK1-LMP1, 50 μg/mL): largest amount of cellular uptake
